Laboratory results from paper PMC3278457.

Key:
[1] = target: spinophilin (GST fusion fragments) 1-300 (UniProt O35274); assay: GST pull-down from striatal extract; settings: reference: wild-type mice; sites T286
[2] = target: spinophilin (striatal) (UniProt Q6R891); assay: co-IP with spinophilin antibody, striatal extract; settings: reference: wild-type mice; sites T286
[3] = target: spinophilin, endogenous in mouse striatal TSF (mouse (endogenous in striatum)) (UniProt Q6R891); assay: co-IP; spinophilin immunoprecipitated with 4 µg goat spinophilin antibody from mouse striatal TSFs (WT or T286A-KI; PND21 or adult); immunoblot

Sequence of UniProt Q6R891 (Q6R891 whole entry): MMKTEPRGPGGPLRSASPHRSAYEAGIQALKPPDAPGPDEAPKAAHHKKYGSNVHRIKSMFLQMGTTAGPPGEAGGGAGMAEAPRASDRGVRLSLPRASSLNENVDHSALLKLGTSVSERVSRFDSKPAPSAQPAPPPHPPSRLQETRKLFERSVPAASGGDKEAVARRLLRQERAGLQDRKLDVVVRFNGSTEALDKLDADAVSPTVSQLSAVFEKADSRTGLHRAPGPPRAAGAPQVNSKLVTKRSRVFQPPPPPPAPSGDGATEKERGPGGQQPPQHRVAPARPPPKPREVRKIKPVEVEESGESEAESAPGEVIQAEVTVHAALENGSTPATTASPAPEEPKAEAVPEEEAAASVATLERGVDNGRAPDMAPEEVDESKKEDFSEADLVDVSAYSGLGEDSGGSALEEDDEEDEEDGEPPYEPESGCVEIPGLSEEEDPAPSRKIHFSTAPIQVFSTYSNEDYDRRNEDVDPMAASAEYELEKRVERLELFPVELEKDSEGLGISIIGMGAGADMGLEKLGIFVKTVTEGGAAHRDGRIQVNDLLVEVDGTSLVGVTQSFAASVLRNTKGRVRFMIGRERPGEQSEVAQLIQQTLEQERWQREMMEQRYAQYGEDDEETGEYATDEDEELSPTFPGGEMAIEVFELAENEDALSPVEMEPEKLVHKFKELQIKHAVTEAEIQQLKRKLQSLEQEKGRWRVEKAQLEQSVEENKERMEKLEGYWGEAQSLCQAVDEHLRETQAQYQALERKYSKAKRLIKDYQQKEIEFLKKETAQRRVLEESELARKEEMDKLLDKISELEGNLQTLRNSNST

Substance: CaMKIIα (from UniProt P11798) T286A knock-in mice
- binding against the reference [1]: weaker
- other: reduction relative to wild type [2]: weaker

Substance: CaMKIIα T286A, endogenous in T286A-KI mouse striatum (from UniProt P11798 1-478) (enzyme)
- reduction of CaMKIIα in spinophilin immune complexes, T286A-KI against WT [3]: 50%
